{"source": "patent JP2018150260A", "about": "(dated 2018)", "binders": {"B1": {"name": "PA 11-9.4モノクローナル抗体 (antibody, V domains shown)", "VH": "AEFVKPGASVKLSCIASGFNIKDTYMYWVKQRPEQGLEWIGRIDPANGNTKYDPKFQGKATITTDTSSNTAYLQVSSLTSEDTAVYYCAYRYDYYFDYWGQGTTLTVSS", "VL": "not shown", "notes": "also called PA 11-9.4 抗体"}}, "target": "T1, myc3 タグ融合 PB1 サブユニット(1aa-81aa), expressed in 293T cells (influenza virus H1N1, UniProt P03431 1-81)", "T1 construct": "range 1-81", "T1 sequence (P03431 1-81)": "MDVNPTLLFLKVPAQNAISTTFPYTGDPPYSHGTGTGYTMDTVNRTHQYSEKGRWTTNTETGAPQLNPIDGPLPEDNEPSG", "test": "Western blot of 293T lysate (denatured protein)"}
{"binder": "B1", "values": [{"measurement": "binding result", "value": "no binding"}]}
